Test results: the supplement of paper PMC12636428

Tested on: Saccharomyces cerevisiae
Assay: transcriptional activation domain activity (GFP:mCherry ratio, weighted mean of sorted bins, harmonized to initial dataset scale) (arbitrary fluorescence ratio units); higher = stronger transcriptional activation
Details: beta-estradiol 1 µM; induction time 4 h
Summary of the method: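 Each value is an activation activity: the read-weighted mean of bin median fluorescence, averaged across barcodes, then mapped linearly to the initial dataset scale. The tiles, fused to an estradiol-inducible synthetic transcription factor, sat at the yeast URA3 locus in GFP-reporter diploids. Cells spent 4 hours at 30 °C in SC with 1 uM beta-estradiol before sorting into 8 GFP:mCherry bins, and tiles below 50 reads were removed.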

Sequence | transcriptional activation domain activity
HNTHKELSEQAVIDSFHVLCFSVGTIKNKPMIVYLVRQGPAIWLTMCTLNDLN | 27200
MLMVLFSIFSTMPSPVYIIILFPSFLTFFFRYILSTVLGLWTFAFHLIPNSCW | 65200
DPPPHPSCPPGSLIIKMVVYLRRRRLLVTWCEDPSVPEVRCLVVATQSQWVPM | 55300
AQLLRLAHIHQIRHMVHIFSPVWYRPAVIYCFIAICFIVVLNIQALLSIVWSS | 45900
MPRHLYLIYILYILMTWGLYLILLQVIFIITMLMIFIYPFSIYLFKFQHIRSL | 49500
WLLQYMMLLGTLRRQSDKLVVKVGWYMANYLVPGIYVFQPRIVMKVLLLILRQ | 44500
GDQGAGRRDRRRRLGHRGGGEGRGREEGEEGRRDGEGRHRGEGGREEGEEEDR | 14300
MLCYAVLWYFVYITFFYINYDMVFLISYLVFLKQLIDRICIIIFIFSFIFFIF | 47400
FLHCEPPTLLRLLGFFLCLVFSLYFTLSFPFFGPMLLLIRFSLGLPLPLVLMG | 58300
ARYIVKYKNGLIGKHFKILQHLGIFHLHNDLCGDNLFNLWKAAGGLGALLWFP | 57600
MSSSEPLTEQTAALSVAEGDADGNVPIGPDGKPLSKSAIKKLQKEKEKAEKAA | 39500
HYFLVIMVLGMIELLRFPETRDAGVSLIRELLAFKFAKTSWDVVICNQLEKYL | 41300
VIMCTALGIKSVKFEFANLCLVSIEHIFALFFYPMAVIICPSFLLHIATFFYI | 83900
PDRLDGRCVPDLSFFSVGDFTPISLVFFLSFPLLLFFFSFFFFFFFFFFFFFF | 37700
MPQTAGQAVWHFILSLLYYQFVPFHIRRFIFSCFPLPVNIPTLFVFLNVLFFW | 51600
DSRKEERRPSGHERKDRERGRDSRKDRDRKRKERLDDTASDDKKDRKRDRGEK | 24700
LESTHSLLALLNFIAFLCDGRFRTIADRLLNVRLIPSRRLVKRDVSYEFMNRQ | 46300
PVNFIFVKLAKVFPLDYLFMVLLIIYFFLVTLTGIITLGVRFFWITLFRIRRG | 19400
MYKSYIFFYLPLLFNCFIMSFFFLYEMPFFYLGRMLHFLLSLISGSWFFFYLF | 50900
LLLPELFFFHLYWALIAFRFIPLLTLLRGMGYCLFFSLLFFFLFFSLFSVLFT | 53000
MFMTELLWGPGVRRLFLVFLFFISFPSLIPFFLSCLSFCTLLISLLCSFGTCA | 38500

Sequence | transcriptional activation domain activity
ILALSWGGGLYPWASYHVLVPLILGFCILVVFALYEIYMPLKYPLIPMSLFLN | 40400
IKFGVPVALIVIIAAVVGGVLGSRASKNSSASSSAAGDSSSPSGEAAASGAAV | 48300
MRGVCSFCSFCSFSFLFLFLFLFLFFSFFSFFSFCFFLFFPSFLSVSLSFLLS | 71100
IYYDPASRDKVYCSRAPIAYVYKRLVRMALESRFVQVAPVALKVLGIVLVMLY | 62500
SFLSPFCRWVGGSFFVIIWSLFFLSLLFSPPCQPGFISWSFWTAGFLVFFFLF | 46500
MISSAKLTLFAFFRSMQMQSISLGRNLKAFILRCVLLWPRILRSFRKVWSWYF | 18200
MSPPTLREVNVSLPRKFDTPDEPWHRYVTIDLLHYVLGYTLFHPFVSCVLVLC | 35200
RFLSFLLLLLVFFYPFVFFVLALVLCTFWSLFPSNTPLHSLVCRLQLLHPFVF | 41400
GLAIIRWQRGFRDYDNVTFKRFDYEVGMSILGWAFHYFPFFLMARQLFLHHYL | 52400
GPYDDIFMGGIYGIKHLYELEDGLTILWHDGIHFSPNRVFRLLIAFLLRVVGT | 61900
NLDFFDFENSFGDLWNMDEFYGDVAWDLSSDPPLDPLFIGELYSASGQYGDLQ | 159000
RRARAHAGMRTRARGGQRAEGVGGVQKARRQTAQGARGACRGREGRRAAGGRL | 8470
HSSIEWLMGWPAGLKLNKELALFLGDLFLWVIEYWSSCISALQPLLPHMVWFI | 39900
SCFIFLGHHFDVFVSFLLKIGLGDEMLGVLWFFFSCVLLVGAFLLRLLGFYHT | 67900
DVDEAGEARGDSSSLCLSFLSLLLFFLFFLFFLLFRFLHLLHFFLFLLVFHFF | 47600
MFFILASFSYYYYTHHISLDKVGNFLCRFIHPVFLCSIFIFPFLLYLFKIIYY | 39100
LQILRVVLHLLIFDLHSSSSLTFPLPFPLALPFFIYPLNFLFLFWSFMCTFMY | 84800
MGREHSAPLDSSSKQGAPRRTQRAQLPHNSLCRMGLKTNMKWTHSIRQDKRAE | 35600
SLLAKCDNGDVLKLQEAIEEDDAAREERERAERAAAALKREKEGSASRVLVTG | 38800
MSEREREHRGGRQDRLTGRSRSRSVRRHEKGDKGADDGRQARERHRSRSPARK | 27400
NILKLPSMVDGSQHCDISKFIVAAAHKIVTPDVSPRGWVLLKLLRSYIELDMY | 29100

Sequence | transcriptional activation domain activity
MDEEVEERNKAFEWTSYSWGKMQIIRYWSRCHAIVVLYTSKRRMWLLVCWLSA | 60400
YILAVGLILRLISYLSRAKVRLMYHWSELWRNLLSLIRFLNTYSADLLSSSTP | 66700
MMMGTIVKSFFLFTFTFSIFFFYFFPRVLFTPFFFYILDLSLFFIVVLIFFSF | 54300
MAQTTPESASSSQSTLARGKACLRCRKRKMRCDGAKPACGQCVKAHKPDACQY | 24400
MDISFFMLFVFDDFFLYSYFFFPSPRPLSNDATLIHIVCILFIILVGLTIVLL | 36800
GAAEVDAAAPEGAETIEGAPAATEKQPRPPKKPRTPRPRRPAGEEPAGEPSKN | 29700
MGWFTFAFWYPPHLLYFLFYLPPPPLFPSHSLEFFSFCICNLTMFILSTFFFA | 50200
RDSKTDVEAEVEAAEKDEKKGKKRKRAEVVAAEESAEARKGKSKKSSRKGKEV | 34100
MLLTVYMFIIVCTCLAQLKIQSLSFLIYYHYINLVLLLLIAGLLYGLSFVRFS | 48500
MQQLFTFGSLFFPSFHPFFFFFFFFCHPSFLFFFLPSFLPFFLFFFLPSFLPF | 58000
VVKGDEVQIVRGSKKGAEGRVTQVYRKKWVIHVDRVERQKAKEQTVPVPVAAS | 70900
REFRVVEEEEEEEEEEEEEEEEEEEEDEEEGGLGGESVEEGGRRDKGKGVVKE | 20100
GSEIVDGDEESSPDGVRIKAESGSSAPVATSSALPPQGGYIGRLNVRKSGKIE | 29800
MYCMRYFVPLFLLPFPDSPPIFVILFLISFFLHQKPCIYCTLLLFALFSSTCF | 48600
MPLPLIFVYLSGQMLSFLGSLFGVYMYFASLVLNYLGLFSSLRLRLWSFFLTA | 66200
WLLFLQEYGTITLTLLQSLEYWISNIDLTDESKSQLSKQGRACMYHLIVLTLR | 53700
RLETLHKCIVTYLWLSYRFANLVGSRKVATYAKEITENVIEKTLMEFTWTRWA | 52000
MTEPMLFFVLYFIRLLPFSFIFFHFLSFSLSILFFVILFSSSFHPFSSSFFFI | 53400
LKLLVCVLWCLDTFDFILNCNLLYLFLVTNYMNPLILIKRPPWSLVLHVAVTV | 53400
KPTNQTEFDWQVFQQQAFLQQQLAQHNLQAYLSSLNTDTMTNRSPSKSSSIST | 66300
EAVESKPVKKAKGKPKKAIETPEPDAEESTGAEAVESKPVKRAKGKSKKAIKT | 53100

Sequence | transcriptional activation domain activity
TGLDGTAYVMFWTINVNVLMLLSQWILEERVRSRALQFCFRYYYFMVYFIFYR | 55300
LVDVFGRIESCFQRIGIYTRVPPTTEMMDMIIQIMVEVLTILGIATKEMKQSR | 63000
LPLLHRELFLKKYFEPIYGPWNPNIALASDQTGINSAFEIPITSAFSAHTEPK | 41700
EGEAPKAEEEEEKDAAPDGEGEQPAEADPEEEERQRRAAIAARMARLGGARLG | 14200
CDNIYLQQDQCGYVLEHCMDATPGLFNYIQLYYCSSFRPLVFIFMCGWLLFLF | 54900
KNNNREVEVEAREPHHKGRKNNKREVGEVEARDPHHKGRKNNKREVEVEAREP | 52900
IPLKKLCHAAIADLFRFLVLSKKDSKDIVARQRLQVAAWMGLWPPKIQRNKWV | 45600
MRLRVFFFISSFMWLLLVSFYCSFFSFAFTLFFFRFPPFFFSLFRFTLLPSPS | 63700
EPIQNEIAKLFHSGGDSVVDILFSQTSATEFVTVGGTGNVYHWDMEYSFSRND | 67800
MEVCSVWISSLWFFVFSAFSVLGLWSLVFGIWSFRESGWYMGPGFFFFFFLIL | 63100
LLILLLAFKKTSKEDPYEAIRLMSLAIGDQYAQGPDRFRLSCQWAVLARMISH | 38400
MIILGRMGYSHVLLLPFFNSICFSFLFLPHSLCCLHFNSFYTYFLLLPHPHLF | 61900
DQKPIIDQKPLALLLEKLTVSEPPRGGTLGPAWMRERLEASGQMALWKRIVEK | 34100
PDISAYDDERLKEGRLIAEFILNRTQYAPDETSKNDRVSDSEVPWMDFPSELN | 37600
MFLLLKYDFSLTDLLRILLRLNMFPILLSFIMDRPYTSYTLPWLISFWYLVFF | 66500
LHFLSIDITSPFLPLDILPDLWATMWPWIRLIDSYWDSLPTLHEWFPSIQIYT | 57500
EDEEEEEEEQEEEEEKEEEVLWAAAPEGGKPVEEEEEEEVVEAEEKKPGEEDA | 24500
FYFICLFFILYFVFIFMFVFHMFVFYFLCFFLCLIYFLLVYFDICFLSLYLFF | 42600
ISSSEKESDGENDSDSEENEQNDQSEIFPEFLGRRDPWQAVTVFILALLVFRN | 66500
LLTFNLEVKRIWTLRWKLPKYLFVLNRYILPPFLFFEAFSNITYNLGKHVSRI | 50800
